17 sequences from the supplement of paper PMC9170038 can be followed below.

This series has as its system MS2 coat protein. Kind of series: apparent KD of MS2 coat protein; higher = weaker reporter binding. The settings on record: Eterna round: R107. Put shortly:
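Apparent KD stands for the median, per design, of fits to normalised cluster binding curves. The curves came from titrating on-chip-transcribed RNA switches on Illumina sequencing clusters with SNAP-549-labelled MS2 coat protein, twofold from 0.7 or 1.5 nM to 3 µM. Buffer was 100 mM Tris-HCl pH 7.5, 80 mM KCl, 4 mM MgCl2, without or with constant ligand.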

Setting [1] is: input ligand: theophylline 20 uM.
[2] abbreviates: input ligand: theophylline 2 mM.
The mark [3] stands for this setting: input ligand: tryptophan 2.4 mM.

Consider “UAAUCCGGUCCUCGAUAAUCCUCAUGUAAACGAGGACCGGUACGGCCGCCACUCGAUAACAUGAGGAUCACCCAUGUAAUAAUAA [|T'-M'-Trp-Ms2|_Design14]”, for which the “apparent KD of MS2 coat protein” value is, setting by setting: (input ligand: arginine 13.2 mM) 47.5 nM; under setting [1], 88.3 nM; under setting [2], 82.2 nM.
As for “UACAUAUGCCGAAGGAGCGCGAGAUGCAAAGCAUCAAUCCUUACAUGAGGAUCACCCAUGUCGCAGGUAGGUCGCGGCAUAUGUU [ArgBX 2]”, the “apparent KD of MS2 coat protein” value was determined as 26.8 nM (input ligand: arginine 13.2 mM); 33.6 nM (input ligand: none); 44.3 nM under setting [1]; 44.7 nM under setting [2]; 36.1 nM under setting [3].
The like results for “UACAUGAGGAUCACCCAUGUAUGAAUGGAUACCAGCGACAAUGGGCGCCCUUGGCAGCUAGUGGAUGAAGGGUGGGUACAAUACU [Exclusion Theophyline A GF4]” were, in that order, 11.4 nM, 13.4 nM, 17.7 nM, 13.1 nM and 11.4 nM.
Turning to “UACAUGAGGAUCACCCAUGUCCCAUGUGAACGAGGACCGGUACGGCCGCCACUCGAAUAAGGCGGCACAUGAGGAUCACCCACAU [AstrosSSTry#2]”, the “apparent KD of MS2 coat protein” value (input ligand: arginine 13.2 mM) came to 283 nM, the “apparent KD of MS2 coat protein” value under setting [1] is 352 nM and the “apparent KD of MS2 coat protein” value under setting [2] came to 399 nM.
Regarding “UACCCAUAGGGAAGGAGCGCGCUAACAUGAGGAUCACCCAUGUAAAGGGUUUCUGGCUUAGCGCAGGUAGGUCGCCCUAUGGGUA [#10 Exclusion - Arginine B]”, the “apparent KD of MS2 coat protein” value by setting is: (input ligand: arginine 13.2 mM) 196 nM; (input ligand: none) 238 nM; under setting [1], 400 nM; under setting [2], 1050 nM; under setting [3], 654 nM.
In the same order, the values of “UACCGAUGAAGAAGGAGCGUACGUGGUUCACAUGAGGAUCACCCAUGUGCUUAUUGCUAGGUACAGGUAGGUCGCUUCAUCGGUA [SSAB NP+V+V2 #21]” are 16.5 nM, 15.5 nM, 21 nM, 17.1 nM and 15.8 nM.
In the same order, the values of “UACCGAUGAAGAAGGAGCGUGCGUGGUUCACAUGAGGAUCACCCAUGUGCUUUAUACUAGGCACAGGUAGGUCGCUUCAUCGGUA [SSAB NP+V+V2 #22]” are 24.3 nM, 19.4 nM, 30.7 nM, 27.8 nM and 23.3 nM.
Turning to “UACGUGGAUGCGGCCGCCACUGCUCUGAGCGAGUUGCUCUAUGGACAUGAGGAUCACCCAUGUCACAGGACCGGGCACGCUUUAA [theeternabot_sameState_MS2_Trp_B_50]”, the “apparent KD of MS2 coat protein” value runs as follows: (input ligand: arginine 13.2 mM) 9.14 nM; under setting [1], 11.9 nM; under setting [2], 10.6 nM.
In the same order, the values of “UACUUGCUGACGGCCGCCACUAGUACAUGAGGAUCACCCAUGUACGGUCGCCCGGUGUGAUCCACUAGGACCGGGUCAGCAAGAU [(Trp1)-(Ms2)-(T)'-(M)'-(Trp2)_Design24]” are 38.4 nM, 42.9 nM and 48.5 nM.
In the case of “UAGAUAGAGGGAAGGAGCGCGAUAACAUAACAUGAGGAUCACCCAUGUAAGAAAUUAAUAAUGCAGGUAGGUCGCCCAAGAUGAU [Same State Arginine B gf1]”, the “apparent KD of MS2 coat protein” value (input ligand: arginine 13.2 mM) was 8.76 nM; the “apparent KD of MS2 coat protein” value (input ligand: none) is 14.5 nM; the “apparent KD of MS2 coat protein” value under setting [1] worked out at 15.1 nM; the “apparent KD of MS2 coat protein” value under setting [2] worked out at 19 nM; the “apparent KD of MS2 coat protein” value under setting [3] stood at 17.1 nM.
Regarding “UAUACAUGGUAUAAAUAUAUAUAUAAGAAACGAGGACCGGUACGGCCGCCACUCGUGCCGGAAACAUGAGGAUCACCCAUGUAUU [AK1 Exclusion TrypA mod IceBolt]”, the “apparent KD of MS2 coat protein” value (input ligand: arginine 13.2 mM) is 21 nM, the “apparent KD of MS2 coat protein” value under setting [1] was 39.3 nM and the “apparent KD of MS2 coat protein” value under setting [2] came out at 49.6 nM.
Consider “UAUAUAGAUGGAAGUCAUAUAGAUGCAGAAGGAGCGUAGGAAACUACAGGUAGGUCGCUGAGGUACAUGAGGAUCACCCAUGUAG [SSArg A #18 Slice of Pi]”, for which the “apparent KD of MS2 coat protein” value reads like this: (input ligand: arginine 13.2 mM) 20.8 nM; (input ligand: none) 27.3 nM; under setting [1], 34.1 nM; under setting [2], 25.3 nM; under setting [3], 24.2 nM.
As to “UAUAUAUAUCACGAACUGUGGUGUAUGUCUCGAGGACCGGUACGGCCGCCACUCGCGCGGCCUCACAUGAGGAUCACCCAUGUCC [XTryp A #5]”, the “apparent KD of MS2 coat protein” value was 66.9 nM (input ligand: arginine 13.2 mM), 132 nM under setting [1] and 107 nM under setting [2].
In the case of “UAUCCACAUGAGGAUCACCCAUGUGAGGAAGGAGCGGUGAAUGCACCAGGUAGGUCGCCUUGCUGAGGACAGCCGGUGGAUUCGU [Exclusion - Arginine A (Freestyle 25)]”, the “apparent KD of MS2 coat protein” value was 13.5 nM (input ligand: arginine 13.2 mM); 12.4 nM (input ligand: none); 16.2 nM under setting [1]; 15.8 nM under setting [2]; 18.3 nM under setting [3].
The like results for “UCACAUGAGGAUCACCCAUGUAUAGUUGAAGGAGCGAUCAGGAGGUCAGGUAGGUCGCAGCACAUGAGGAUCACCCAUGUAUCGA [DOUBLE!!! :-D #4]” were, in that order, 34 nM, 85.2 nM, 72.7 nM, 50.4 nM and 59.5 nM.
With “UCACGACGCAUGGAUACCAGCGACAUGAGGAUCACCCAUGUAUGAGGAUCAGCCAUGUUAUGCCCUUGGCAGCCACGAAGGUCAU [KNKMULLIN]”, the “apparent KD of MS2 coat protein” value runs as follows: (input ligand: arginine 13.2 mM) 14.2 nM; under setting [1], 20.1 nM; under setting [3], 15.8 nM.
Consider “UCAUGACAUGGGAAUAAAUAAGAAGGCGAAGGAGCGUGAAGAUUCACAGGUAGGUCGCGCAAAAUACAUGAGGAUCACCCAUGUU [JR_Nu_ExcArginiA_Sub032]”, for which the “apparent KD of MS2 coat protein” value stood at 33 nM (input ligand: arginine 13.2 mM); 30.4 nM (input ligand: none); 53.2 nM under setting [1]; 43.9 nM under setting [2]; 37.3 nM under setting [3].
